Like-named read-outs stand apart in the source and are kept apart here.
Key:
Test in all cases: NMR titration
[1] = molecular target: 3-fluorotyrosine labeled A34F variant of the B1 domain of protein G (T2Q background)
[2] = molecular target: 3-fluorotyrosine labeled A34F variant of the B1 domain of protein G (T2Q background); remark: listed apart in the source
[3] = molecular target: 3-fluorotyrosine labeled A34F variant of the B1 domain of protein G (T2Q background); remark: listed apart in the source
[4] = molecular target: 3-fluorotyrosine labeled A34F variant of the B1 domain of protein G (T2Q background); remark: listed apart in the source
[5] = molecular target: 3-fluorotyrosine labeled A34F variant of the B1 domain of protein G (T2Q background); remark: listed apart in the source
[6] = molecular target: 3-fluorotyrosine labeled A34F variant of the B1 domain of protein G (T2Q background); remark: listed apart in the source
[7] = molecular target: 3-fluorotyrosine labeled A34F variant of the B1 domain of protein G (T2Q background); remark: listed apart in the source
[8] = molecular target: 3-fluorotyrosine labeled A34F variant of the B1 domain of protein G (T2Q background); remark: listed apart in the source
[9] = molecular target: 3-fluorotyrosine labeled A34F variant of the B1 domain of protein G (T2Q background); remark: listed apart in the source
[10] = molecular target: 3-fluorotyrosine labeled A34F variant of the B1 domain of protein G (T2Q background); remark: listed apart in the source

Kd [1]: 25 µM
Kd [2]: 17 µM
Kd [3]: 85 µM
Kd [4]: 26 µM
Kd [5]: 59 µM
Kd [6]: 90 µM
Kd [7]: 45 µM
Kd [8]: 95 µM
Kd [9]: 55 µM
Kd [10]: 80 µM
Substance: 3-fluorotyrosine labeled A34F variant of the B1 domain of protein G (T2Q background) (domain or fragment)
